Experimental data taken from paper PMC10231317.

What was measured:
Experiment in all cases: native gel or EMSA
[1] = target: H3K18Cub nucleosome core particle (UniProt P68431)
[2] = target: H3K18CubK23Cub nucleosome core particle (UniProt P68431)
[3] = target: H3K23Cub nucleosome core particle (UniProt P68431)
[4] = target: unmodified nucleosome core particle (recombinant H3, H2A, H2B, H4 octamer on He601 DNA) (UniProt P68431)

Kd [1]: 116 nM | percent of NCP shifted at 250 nM mDNMT1 [1]: 70% | Kd [2]: 13 nM | Kd [3]: 136 nM | percent of NCP shifted at 250 nM mDNMT1 [3]: 70% | Kd [4]: 193 nM
Substance: N-terminal truncated mouse DNMT1 (residues 291–1620) (from UniProt P13864 291-1620) (enzyme)
